Data reported in EP1959993B1.
Each block holds one substance with its values, some of them ahead of it.

Legend:
CEA = CEA (UniProt P06731); assay: SE-HPLC of 125I-TF2 mixed with a 20-fold molar excess of CEA
[1] = target: fusion protein containing the A3B3 domain of CEA (UniProt P06731); assay: competitive ELISA against HRP-conjugated hMN-14 IgG on the A3B3 fusion protein
[2] = target: N-DDD1-Fab-hMN-14 (human); assay: equilibrium SE-HPLC
[3] = target: recombinant human RIIα (human) (UniProt P13861); assay: equilibrium SE-HPLC
UniProt P13861, sequence (P13861 whole entry): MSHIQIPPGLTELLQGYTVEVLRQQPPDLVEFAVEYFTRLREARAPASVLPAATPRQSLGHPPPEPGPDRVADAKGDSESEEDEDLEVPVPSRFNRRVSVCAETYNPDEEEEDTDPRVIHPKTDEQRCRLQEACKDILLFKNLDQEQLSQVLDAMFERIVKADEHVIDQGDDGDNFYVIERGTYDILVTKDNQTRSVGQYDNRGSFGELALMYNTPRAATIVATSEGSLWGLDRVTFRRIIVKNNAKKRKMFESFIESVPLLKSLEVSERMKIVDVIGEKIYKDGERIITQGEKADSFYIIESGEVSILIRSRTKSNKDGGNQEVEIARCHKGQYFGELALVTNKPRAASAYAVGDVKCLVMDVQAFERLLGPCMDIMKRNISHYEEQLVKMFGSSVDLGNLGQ

[4] = target: C-DDD1-Fab-hMN-14 (human); assay: equilibrium SE-HPLC
[5] = target: C-DDD1-Fab-hMN-14 (human); assay: SE-HPLC of the mixture with hMN14-Fab-DDD1; h679-Fab-AD2 not reduced
[6] = target: C-DDD1-Fab-hMN-14 (human); assay: SE-HPLC of the mixture with hMN14-Fab-DDD1; h679-Fab-AD2 reduced with TCEP

percent shifted to a high molecular weight species (CEA): 95%
avidity, fold against TF1 [1]: 2 fold
Substance: TF2 (bispecific antibody)

Kd [2]: 0.008 µM
Kd [3]: 0.03 µM
Kd [4]: 0.015 µM
Substance: h679-Fab-AD1

fraction reactive [5]: 0.33
percent activity [6]: 100%
Substance: h679-Fab-AD2
